One molecule from paper doi:10.1101/2022.04.11.487660 (bioRxiv, 2022) can be followed below.

For the test, the target named is lysozyme (UniProt P00698). Briefly: ELISA. Background: In an ELISA, binding on a coated surface is turned into a signal by an enzyme label.

B1: camel nanobody 1ZVH, displayed on phage (VHH)
VHH: DVQLVESGGGSVQAGGSLRLSCAASGYIASINYLGWFRQAPGKEREGVAAVSPAGGTPYYADSVKGRFTVSLDNAENTVYLQMNSLKPEDTALYYCAAARQGWYIPLNSYGYNYWGQGTQVTVSS
Regarding B1, the binding result is reported as “binds”.
